From patent publication US20050074855A1 (Regeneron, published 2005)

Biological target: T1, human IL-6 (human, UniProt P05231 30-212)
T1 construct: Soluble analyte injected at 1.25, 2.5 and 5 nM in the BIAcore assay; also called hIL-6
Test: SPR (BIAcore 2000), fusion captured by anti-human Fc, hIL-6 injected
Procedure: Affinity Measurements. The affinity of the various scFv-scFv-Fc fusion proteins for human IL-6 was measured using a BIAcore 2000. […] Kinetic analysis using BIAevaluation software was performed to obtain the association and dissociation rate constants.

T1 sequence (P05231 30-212 limits assumed): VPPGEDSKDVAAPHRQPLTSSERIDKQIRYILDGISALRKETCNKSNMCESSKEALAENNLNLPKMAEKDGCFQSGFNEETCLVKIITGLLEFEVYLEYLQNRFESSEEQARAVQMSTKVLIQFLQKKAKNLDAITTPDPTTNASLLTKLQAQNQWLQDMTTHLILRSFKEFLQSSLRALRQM

| Kd [nM] | Binder |
| --- | --- |
| 0.43 | 8F10 ScFv-Fc (Fc fusion, how it was built is not described; not shown: Fc domain of human IgG1) QVQLQQSGAELAKPGASVKMSCKASGYTFTTYWMHWIKQRPGQGLEWIGYINPSTGYSEFNQKFNDKATLTADRSSSTAYMQLNSLTSEDSAVYYCARDAYYGNYEDYWGQGTTLTVSSAGGGGSGGGGSGGGGSSIVMTQTPKFLLVSAGDRVTITCKASQSVSYDVAWYQQKPGQSPKLLIYYESNRYSGVPDRFTGSGNGTDFTFTISTVQAEDLAVYFCQQVYTSPYTFGGGTKLEIKR |
| 0.296 | 8F10.8F10 ScFv-ScFv-Fc (Fc fusion, Monospecific tandem scFv-Fc; not shown: Fc domain of human IgG1) QVQLQQSGAELAKPGASVKMSCKASGYTFTTYWMHWIKQRPGQGLEWIGYINPSTGYSEFNQKFNDKATLTADRSSSTAYMQLNSLTSEDSAVYYCARDAYYGNYEDYWGQGTTLTVSSAGGGGSGGGGSGGGGSSIVMTQTPKFLLVSAGDRVTITCKASQSVSYDVAWYQQKPGQSPKLLIYYESNRYSGVPDRFTGSGNGTDFTFTISTVQAEDLAVYFCQQVYTSPYTFGGGTKLEIKRGGGGSGGGGSGGGGSQVQLQQSGAELAKPGASVKMSCKASGYTFTTYWMHWIKQRPGQGLEWIGYINPSTGYSEFNQKFNDKATLTADRSSSTAYMQLNSLTSEDSAVYYCARDAYYGNYEDYWGQGTTLTVSSAGGGGSGGGGSGGGGSSIVMTQTPKFLLVSAGDRVTITCKASQSVSYDVAWYQQKPGQSPKLLIYYESNRYSGVPDRFTGSGNGTDFTFTISTVQAEDLAVYFCQQVYTSPYTFGGGTKLEIKR |
